Laboratory results reported in patent publication US20240108766A1 (Bayer, published 2024).
Substitutions are numbered along the chain they refer to.

Experiments:
[1] = target: T1, cynomolgus (Macaca fascicularis) LRRC15 extracellular domain with C-terminal His tag (cynomolgus monkey (Macaca fascicularis), UniProt Q8TF66 22-538 (human entry)); assay: SPR Biacore T200, 25°C, antibody captured, LRRC15 analyte
T1 construct: Recombinant, made in HEK293; the entry holds the extracellular domain and the His tag; SPR analyte; also called TPP-9046
T1 chain: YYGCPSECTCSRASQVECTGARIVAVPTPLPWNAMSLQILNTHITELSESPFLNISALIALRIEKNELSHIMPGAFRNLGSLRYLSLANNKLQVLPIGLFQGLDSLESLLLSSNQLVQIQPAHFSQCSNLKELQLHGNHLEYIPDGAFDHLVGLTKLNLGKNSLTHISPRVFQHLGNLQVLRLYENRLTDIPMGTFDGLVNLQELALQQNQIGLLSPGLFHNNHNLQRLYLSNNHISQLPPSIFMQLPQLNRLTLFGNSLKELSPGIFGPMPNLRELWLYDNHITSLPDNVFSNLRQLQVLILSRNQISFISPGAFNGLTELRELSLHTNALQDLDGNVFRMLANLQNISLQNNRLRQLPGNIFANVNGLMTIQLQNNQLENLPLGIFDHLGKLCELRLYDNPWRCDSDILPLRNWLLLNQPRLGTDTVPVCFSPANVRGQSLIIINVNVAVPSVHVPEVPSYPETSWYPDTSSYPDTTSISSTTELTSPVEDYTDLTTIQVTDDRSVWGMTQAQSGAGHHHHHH
Experimental: To assess the binding kinetics and affinity of anti-LRRC15 antibodies as well as their species cross-reactivity profile, binding assays were conducted using surface plasmon resonance (SPR). Binding assays were performed on a Biacore T200 instrument at 25° C. using assay buffer HBS EP+, 1 mg/ml BSA, 300 mM NaCl, 0.05% NaN3. Antibodies were captured via anti-human Fc IgGs covalently amine coupled to a CM5 sensor chip and human, mouse and cynomolgus LRRC15 were used as analytes in a concentration series from 1.56-200 nM in multi cycle kinetics mode. […] Obtained sensorgrams were fitted to a 1:1 Langmuir binding model to derive kinetic data.

[2] = target: T2, human LRRC15 extracellular domain with C-terminal His tag (human, UniProt Q8TF66 22-538); assay: SPR Biacore T200, antibody captured, LRRC15 analyte, 25°C
T2 construct: Recombinant, made in HEK293; the entry holds the extracellular domain and the His tag; SPR analyte; also called TPP-1545; hLRRC15 CT-His
T2 sequence: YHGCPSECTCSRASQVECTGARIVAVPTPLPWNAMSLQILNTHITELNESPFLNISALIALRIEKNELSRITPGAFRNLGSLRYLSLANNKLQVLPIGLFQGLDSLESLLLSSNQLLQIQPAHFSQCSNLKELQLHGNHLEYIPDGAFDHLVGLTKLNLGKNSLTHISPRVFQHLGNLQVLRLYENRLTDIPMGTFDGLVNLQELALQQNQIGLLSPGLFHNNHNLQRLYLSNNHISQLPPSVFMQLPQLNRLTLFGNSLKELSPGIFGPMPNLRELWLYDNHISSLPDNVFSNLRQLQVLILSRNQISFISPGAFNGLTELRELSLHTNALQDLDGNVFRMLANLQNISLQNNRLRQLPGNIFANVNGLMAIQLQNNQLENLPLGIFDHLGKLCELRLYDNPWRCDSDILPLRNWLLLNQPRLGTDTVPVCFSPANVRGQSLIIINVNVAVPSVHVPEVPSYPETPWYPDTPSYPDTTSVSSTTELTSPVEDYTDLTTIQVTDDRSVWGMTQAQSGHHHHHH
Experimental: (§1) To assess if anti-LRRC-15 antibodies show a difference in binding at different temperatures, binding assays were conducted using surface plasmon resonance (SPR). Binding assays were performed on a Biacore T200 instrument at temperatures of 10° C., 20° C., 25° C. and 37° C. with assay buffer HBS EP+, 1 mg/ml BSA (bovine serum albumine), 300 mM NaCl, 0.05% NaN₃. Antibodies were captured via anti-human Fc IgGs covalently amine coupled to a CM5 sensor chip and human LRRC15 was used as an analyte in a concentration series from 1.56-200 nM in multi cycle kinetics mode. Pre-experiments were conducted to have an equal capture level at each temperature. Obtained sensorgrams were fitted to a 1:1 Langmuir binding model to derive kinetic data.

[3] = target: T3, human LRRC15 expressed on cells (human, UniProt Q8TF66 22-581); assay: flow cytometry, transfected HEK293, 0 µg/ml
T3 construct: whole, on cells; On HEK293 cells transfected with LRRC15/ZsGreen1 (Retrogenix), on HT29 cells transfected with human LRRC15, and endogenous on Saos-2; also called LRRC15/ZsGreen1 transfected HEK293 cells; HT29-LRRC15
T3 sequence (looked up): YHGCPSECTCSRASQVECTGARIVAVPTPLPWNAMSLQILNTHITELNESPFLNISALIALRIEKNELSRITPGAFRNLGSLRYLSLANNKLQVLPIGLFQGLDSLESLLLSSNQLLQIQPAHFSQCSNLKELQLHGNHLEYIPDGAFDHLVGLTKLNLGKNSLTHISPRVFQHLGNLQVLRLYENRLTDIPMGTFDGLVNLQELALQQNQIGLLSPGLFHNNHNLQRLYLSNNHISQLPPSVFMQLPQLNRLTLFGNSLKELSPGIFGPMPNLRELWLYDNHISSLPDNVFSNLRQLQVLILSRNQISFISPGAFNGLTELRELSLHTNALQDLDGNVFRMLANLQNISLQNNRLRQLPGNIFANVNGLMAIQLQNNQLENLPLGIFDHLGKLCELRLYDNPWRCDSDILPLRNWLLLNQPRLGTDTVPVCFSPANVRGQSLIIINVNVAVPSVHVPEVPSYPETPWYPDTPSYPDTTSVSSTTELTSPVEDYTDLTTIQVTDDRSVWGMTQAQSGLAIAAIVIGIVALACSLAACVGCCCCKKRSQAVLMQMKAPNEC

[4] = target: T2, human LRRC15 extracellular domain with …; assay: calculated from SPR kd, 10°C
Experimental: as §1

[5] = target: T3, human LRRC15 expressed on cells; assay: flow cytometry, transfected HEK293, 0.004 µg/ml
[6] = target: T2, human LRRC15 extracellular domain with …; assay: calculated from SPR kd, 20°C
Experimental: as §1

[7] = target: T2, human LRRC15 extracellular domain with …; assay: calculated from SPR kd, 37°C
Experimental: as §1

[8] = target: T2, human LRRC15 extracellular domain with …; assay: calculated from SPR kd, 25°C
Experimental: as §1

B1: TPP-12942 (antibody, human IgG1, kappa, V domains shown)
VH: EVQLVQSGAEVKKPGASVKVSCKASGYKFSSYWIEWVKQAPGQGLEWIGEILPGSDTTNYNEKFKDRATFTSDTSINTAYMELSRLRSDDTAVYYCARDRGNYRAWFGYWGQGTLVTVSS
VL: DIQMTQSPSSLSASVGDRVTITCRASQDISNYLNWYQQKPGGAVKFLIYYTSRLHSGVPSRFSGSGSGTDYTLTISSLQPEDFATYFCQQGEALPWTFGGGTKVEIKR
notes: Prior art humanized IgG1 kappa antibody, used as comparator; also called huM25; huM25-hIgG1Kappa
Kd [1]: 36 nM
Kd [2]: 21 nM
Median Fluorescence AF647 [3]: 594
Complex Half Life [4]: 0.963 h
Median Fluorescence AF647 [5]: 19800
Complex Half Life [6]: 0.218 h
Complex Half Life [7]: 0.0267 h

B2: TPP-17078 (antibody, human IgG1, kappa, V domains shown)
VH: B1 VH
VL: B1 VL with D28S, N31S, V44P, T51A, R53S, H55Q, F87Y, E92F, A93S
notes: also called 438H-M308-H05-hIgGkappa
Kd [1]: 1.8 nM
Complex Half Life [8]: 2.12 h
Kd [2]: 1.6 nM
Median Fluorescence AF647 [3]: 597
Complex Half Life [4]: 14.8 h
Median Fluorescence AF647 [5]: 27600
Complex Half Life [6]: 4.18 h
Complex Half Life [7]: 0.292 h

B3: TPP-17421 (antibody, human IgG1, kappa, V domains shown)
VH: B1 VH with T57W, G108Q
VL: B1 VL with D28S, N31S, V44P, T51A, R53S, H55Q, F87Y, E92L, A93E
notes: also called 438H-M306-C11-hIgG1Kappa
Kd [1]: 0.91 nM
Complex Half Life [8]: 3.63 h
Kd [2]: 0.88 nM
Median Fluorescence AF647 [3]: 588
Complex Half Life [4]: 9.63 h
Median Fluorescence AF647 [5]: 13100
Complex Half Life [6]: 4.48 h
Complex Half Life [7]: 1.07 h

B4: TPP-14389 (antibody, human IgG1, kappa, V domains shown)
VH: EVQLLESGGGLVQPGGSLRLSCAASGFTFSGYMMSWVRQAPGKGLEWVSGIYPSPGYTYYADSVKGRFTISRDNSKNTLYLQMNSLRAEDTAVYYCAREKASDLFGSYSEALDYWGQGTLVTVSS
VL: DIQMTQSPDSLSASVGDRVTITCRASQDVGSWLAWYQQKPGKAPKLLIFAASSLESGIPSRFSGSGSGTDFTLTISSLQPEDFATYYCQQANGFPLTFGGGTKVEIKR
notes: also called 13612-rec02-hIgG1Kappa
Kd [1]: 9 nM
Complex Half Life [8]: 0.148 h
Kd [2]: 5.4 nM
Complex Half Life [4]: 1.6 h
Complex Half Life [6]: 0.41 h
Complex Half Life [7]: 0.01 h
